According to the supplement of paper PMC10567573:

B1: LPCAT4 (parent)
chain: HDPLYGKLFSTYLRPPHTSRGTSQ

Variants of: B1
Test: protein stability index of a GFP-peptide fusion (GPS, HEK-293T) (PSI 1-6); higher = more stable
Details: c terminus: a fixed tail appended
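Note: lentivirally expressed fusions sorted by FACS into six bins by GFP to DsRed ratio, PSI derived from sequencing read proportions per bin multiplied by bin number.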

Protein stability index: each site, then its substitutions
G6: Y 2.42, W 2.06, R 1.76, A 1.77, T 1.86, I 1.6, S 1.27, Q 2.35, E 3.19, D 3.61, V 2.56, L 2.18, P 3.46, F 1.58, M 1.7, C 2.17, N 2.08, H 1.88, K 1.73
H1: M 2.98, Q 3.18, I 3.4, V 4, W 2.38, P 3.1, R 3.09, L 4.22, F 2.12, N 3.2, T 3.96, K 3.32, S 3.68, G 2.88
K7: D 3.28, P 2.36, I 2.75, Y 1.78, R 2.46, H 2, A 2.55, E 3.29, W 1.96, N 3.36, C 2.04, V 2.68, L 2.46, M 2.65, Q 3.12, F 1.94, G 3.25, S 2.58, T 3.43
D2: H 2.19, C 2.28, A 2.37, K 2.63, Q 2.44, N 2.1, V 1.85, W 2.86, S 2.5, G 2.56, I 1.96, L 2.34, R 2.63, F 2.27, Y 2.62, M 1.91, P 2.8, T 1.98, E 2.74
S10: A 2.96
P3: V 2.76, A 2.5, S 2.3, Y 2.55, I 2.29, D 3.02, M 2.27, Q 2.38, F 2.12, L 2.25, N 2.44, R 2.55, K 2.54, H 2.98, W 2.03, E 3.14, C 2.17, T 2.7, G 2.35
L4: A 2.32, D 3.74, R 1.58, N 2.28, M 3.29, G 3.3, T 2.87, F 3.22, Q 2.03, K 1.9, W 2.98, S 3.35, H 3.22, V 2.66, C 3.28, Y 2.69, P 3.28, I 2.04, E 3.46
L8: N 4.19, W 2.37, A 4.59, S 4.68, D 4.88, Q 4.58, H 4.44, M 3.73, V 3.62, C 4.01, I 3.25, T 4.31, G 4.66, K 3.91, R 4.27, F 2.15, P 4.26, E 4.85, Y 2.58
Y5: L 3.05, N 2.85, V 3.3, A 2.94, S 3.21, F 2.47, R 3.18, M 3.11, K 3.43, D 3.92, C 3.69, H 2.98, G 2.76, P 3.65, T 3.36, Q 3.82, E 3.67, W 2.11, I 2.69
F9: K 4.05, A 4.32, G 4.09, V 4.24, C 3.71, T 4.12, N 4.76, Y 3.8, Q 4.37, I 3.82, M 4.35, R 4.13, D 4.41, P 3.65, E 4.54, L 3.54, W 2.43, S 4.74, H 4.33
